Columns and labels:
[1] = molecular target: PTH2 receptor mutant Tyr-318-Phe (human) (UniProt P49190)
[2] = molecular target: parathyroid hormone 2 receptor (PTH2), wild type, human (human) (UniProt P49190)
[3] = molecular target: PTH2 receptor mutant Tyr-318-Ile (human) (UniProt P49190); assay: radioligand binding; whole-cell competition: HEK-293 cells expressing the receptor in poly-D-lysine coated 24-well plates; 50 pM ^125I-rPTH(1–34); unlabelled ligand 10 μM–10 pM; room temperature, 2 h; Whole Cell Binding Buffer pH 7.7 with 5% horse serum and 0.5% foetal calf serum; IC50 from a single site model with the Hill co-efficient constrained to 1
[4] = molecular target: PTH2 receptor mutant Tyr-318-Phe (human) (UniProt P49190); assay: as above
[5] = molecular target: parathyroid hormone 2 receptor (PTH2), wild type, human (human) (UniProt P49190); assay: as above
[6] = molecular target: PTH2 receptor mutant Tyr-318-Ile (human) (UniProt P49190)
PTH1 = assay: LANCE cAMP screen, wild type PTH1; type: cell-based, human; conditions: 1 μM PTH(1–34); HEK-293 stable cells, 10,000 cells/well, 30 min stimulation
Description: (§1) The full-length cDNA of human PTH1 and PTH2 (gift from GlaxoSmithKline) in pcDNA3 (Invitrogen, Paisley, UK) were used to express wild type receptors as described previously [14]. […] These various pcDNA3 constructs were used to express the wild type human PTH1 and PTH2 receptors, and mutant PTH2 receptors, in Human Embryonic Kidney (HEK)-293 cells.
(§2) The HEK-293 cells were cultured in Dulbecco’s Modified Eagle’s Medium (DMEM, from Sigma, Poole, UK) supplemented with 10% foetal calf serum (Lonza Wokinham Ltd., Wokingham, UK) and containing 2 mM L-glutamine, 100 U/ml penicillin and 100 μg/ml streptomycin (Invitrogen, Paisley, UK). Cells were transfected with pcDNA3 containing the cDNA encoding the receptors, using the SuperFect® Transfection Reagent (Qiagen Ltd., Crawley, UK.) and stable clones were selected with G418 antibiotic (Invitrogen, Paisley, UK) as follows. Cells were seeded into a 25 cm^2 flask containing 10 ml of media and transfected when they reached 50–80% confluence. To do this, 20 μl of SuperFect® was mixed with a DNA solution consisting of 5 μg plasmid DNA in 150 μl DMEM. […]
(§3) The LANCE cAMP kit (PerkinElmer Life and Analytical Sciences) was used alongside the manufacturer’s instructions with some minor adaptations as described. […] The acceptor fluorescence signal was read at 665 nm on a ViewLux instrument (Perkin Elmer).

PTH2R (V146 M) = assay: LANCE cAMP screen, mutant PTH2; type: cell-based, human; conditions: 1 μM PTH(1–34), 10,000 cells/well, 30 min
Description: as §1, §2, §3

PTH2R (V380 M) = assay: LANCE cAMP screen, mutant PTH2; type: cell-based, human; conditions: 1 μM PTH(1–34), 10,000 cells/well, 30 min
Description: (§4) These various pcDNA3 constructs were used to express the wild type human PTH1 and PTH2 receptors, and mutant PTH2 receptors, in Human Embryonic Kidney (HEK)-293 cells.
(§5) The HEK-293 cells were cultured in Dulbecco’s Modified Eagle’s Medium (DMEM, from Sigma, Poole, UK) supplemented with 10% foetal calf serum (Lonza Wokinham Ltd., Wokingham, UK) and containing 2 mM L-glutamine, 100 U/ml penicillin and 100 μg/ml streptomycin (Invitrogen, Paisley, UK). Cells were transfected with pcDNA3 containing the cDNA encoding the receptors, using the SuperFect® Transfection Reagent (Qiagen Ltd., Crawley, UK.) and stable clones were selected with G418 antibiotic (Invitrogen, Paisley, UK) as follows. Cells were seeded into a 25 cm^2 flask containing 10 ml of media and transfected when they reached 50–80% confluence. To do this, 20 μl of SuperFect® was mixed with a DNA solution consisting of 5 μg plasmid DNA in 150 μl DMEM. The DNA was incubated with the reagent for 10 min at room temperature after which 1 ml of media was then added and mixed gently. […]
as §3

PTH2R (T192V) = assay: LANCE cAMP screen, mutant PTH2; conditions: 1 μM PTH(1–34), 10,000 cells/well, 30 min
Description: as §1, §2, §3

PTH2R (V241T) = assay: LANCE cAMP screen, mutant PTH2; conditions: 1 μM PTH(1–34), 10,000 cells/well, 30 min
Description: as §1, §2, §3

PTH2R (M242F) = assay: LANCE cAMP screen, mutant PTH2; conditions: 1 μM PTH(1–34), 10,000 cells/well, 30 min
Description: as §1, §2, §3

PTH2R (I244L) = assay: LANCE cAMP screen, mutant PTH2; conditions: 1 μM PTH(1–34), 10,000 cells/well, 30 min
Description: as §1, §2, §3

PTH2R (A293V) = assay: LANCE cAMP screen, mutant PTH2; conditions: 1 μM PTH(1–34), 10,000 cells/well, 30 min
Description: as §1, §2, §3

PTH2R (A295V) = assay: LANCE cAMP screen, mutant PTH2; conditions: 1 μM PTH(1–34), 10,000 cells/well, 30 min
Description: as §1, §2, §3

PTH2R (V296S) = assay: LANCE cAMP screen, mutant PTH2; conditions: 1 μM PTH(1–34), 10,000 cells/well, 30 min
Description: as §4, §5, §3

PTH2R (A297V) = assay: LANCE cAMP screen, mutant PTH2; conditions: 1 μM PTH(1–34), 10,000 cells/well, 30 min
Description: as §4, §5, §3

PTH2R (Y318I) = assay: LANCE cAMP screen, mutant PTH2; conditions: 1 μM PTH(1–34), 10,000 cells/well, 30 min
Description: as §4, §5, §3

PTH2R (A320V) = assay: LANCE cAMP screen, mutant PTH2; conditions: 1 μM PTH(1–34), 10,000 cells/well, 30 min
Description: as §4, §5, §3

PTH2R (G327V) = assay: LANCE cAMP screen, mutant PTH2; conditions: 1 μM PTH(1–34), 10,000 cells/well, 30 min
Description: as §4, §5, §3

PTH2R (C381A) = assay: LANCE cAMP screen, mutant PTH2; conditions: 1 μM PTH(1–34), 10,000 cells/well, 30 min
Description: as §4, §5, §3

PTH2R (L382T) = assay: LANCE cAMP screen, mutant PTH2; conditions: 1 μM PTH(1–34), 10,000 cells/well, 30 min
Description: as §4, §5, §3

PTH2R (C397Y) = assay: LANCE cAMP screen, mutant PTH2; conditions: 1 μM PTH(1–34), 10,000 cells/well, 30 min
Description: as §4, §5, §3

PTH2R (L399M) = assay: LANCE cAMP screen, mutant PTH2; conditions: 1 μM PTH(1–34), 10,000 cells/well, 30 min
Description: as §4, §5, §3

PTH2 = conditions: cited from earlier work
Description: Despite the success of the chimeric and single residue-swap studies of PTH1 and PTH2 described above, [14], [15], [20], which identified PTH/PTHrP binding and selectivity determinants at PTH1 and PTH2, the nature of the TIP39 selection has not been explored to the same degree.

PTH2 receptor mutant Tyr-318-Ile (human), sequence (P49190 25-550 Y318I): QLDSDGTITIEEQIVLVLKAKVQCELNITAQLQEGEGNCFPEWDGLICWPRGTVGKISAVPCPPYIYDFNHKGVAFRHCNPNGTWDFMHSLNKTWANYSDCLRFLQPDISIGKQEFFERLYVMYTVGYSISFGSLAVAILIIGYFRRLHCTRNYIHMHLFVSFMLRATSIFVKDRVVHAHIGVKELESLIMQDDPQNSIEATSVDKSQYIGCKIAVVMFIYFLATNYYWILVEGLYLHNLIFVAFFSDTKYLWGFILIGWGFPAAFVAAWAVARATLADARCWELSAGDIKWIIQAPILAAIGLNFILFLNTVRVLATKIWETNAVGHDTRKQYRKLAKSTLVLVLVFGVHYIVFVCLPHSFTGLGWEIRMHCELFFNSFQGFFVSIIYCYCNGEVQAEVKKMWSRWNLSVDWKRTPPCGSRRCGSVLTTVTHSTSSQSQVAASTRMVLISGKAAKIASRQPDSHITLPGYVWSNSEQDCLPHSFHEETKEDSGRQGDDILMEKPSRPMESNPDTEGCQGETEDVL
parathyroid hormone 2 receptor (PTH2), wild type, human (human), sequence (P49190 25-550): as the sequence (P49190 25-550 Y318I) above, with I294Y counted along it
PTH2 receptor mutant Tyr-318-Phe (human), sequence (P49190 25-550 Y318F): as the sequence (P49190 25-550 Y318I) above, with I294F counted along it

| cAMP accumulation (LANCE), EC50; 2500 cells/well, 10 min [1] [nM] | cAMP accumulation (LANCE), pEC50; 2500 cells/well, 10 min [1] | cAMP accumulation (LANCE), EC50; 2500 cells/well, 10 min [2] [nM] | cAMP accumulation (LANCE), pEC50; 2500 cells/well, 10 min [2] | IC50 [3] [nM] | pIC50 [3] | IC50 [4] [nM] | pIC50 [4] | IC50 [5] [nM] | pIC50 [5] | cAMP accumulation (LANCE), EC50; 2500 cells/well, 10 min [6] [nM] | cAMP accumulation (LANCE), pEC50; 2500 cells/well, 10 min [6] | Compound | further results |
| --- | --- | --- | --- | --- | --- | --- | --- | --- | --- | --- | --- | --- | --- |
| > 1000 | < 6 | 123 | 6.91 | 8710 | 5.06 | 4270 | 5.37 | 1050 | 5.98 | – | – | TIP (6–39) (peptide) | – |
| 912 | 6.04 | 17 | 7.77 | 7240 | 5.14 | 3240 | 5.49 | 871 | 6.06 | > 1000 | < 6 | TIP (5–39) (peptide) | – |
| – | – | – | – | – | – | – | – | – | – | – | – | CC[C@H](C)[C@H](NC(=O)[C@H](CCC(=O)O)NC(=O)[C@H](CO)NC(=O)[C@@H](NC(=O)[C@@H](N)CO)C(C)C)C(=O)N[C@@H](CCC(N)=O)C(=O)N[C@@H](CC(C)C)C(=O)N[C@@H](CCSC)C(=O)N[C@@H](Cc1c[nH]cn1)C(=O)N[C@@H](CC(N)=O)C(=O)N[C@@H](CC(C)C)C(=O)NCC(=O)N[C@@H](CCCCN)C(=O)N[C@@H](Cc1c[nH]cn1)C(=O)N[C@@H](CC(C)C)C(=O)N[C@@H](CC(N)=O)C(=O)N[C@@H](CO)C(=O)N[C@@H](CCSC)C(=O)N[C@@H](CCC(=O)O)C(=O)N[C@@H](CCCNC(=N)N)C(=O)N[C@H](C(=O)N[C@@H](CCC(=O)O)C(=O)N[C@@H](Cc1c[nH]c2ccccc12)C(=O)N[C@@H](CC(C)C)C(=O)N[C@@H](CCCNC(=N)N)C(=O)N[C@@H](CCCCN)C(=O)N[C@@H](CCCCN)C(=O)N[C@@H](CC(C)C)C(=O)N[C@@H](CCC(N)=O)C(=O)N[C@@H](CC(=O)O)C(=O)N[C@H](C(=O)N[C@@H](Cc1c[nH]cn1)C(=O)N[C@@H](CC(N)=O)C(=O)N[C@@H](Cc1ccccc1)C(=O)O)C(C)C)C(C)C [PTH(1–34)] | % maximum PTH(1–34) response (PTH1): 99 ± 2%; % maximum PTH(1–34) response (PTH2R (V146 M)): 102 ± 1%; % maximum PTH(1–34) response (PTH2R (V380 M)): 102 ± 1%; % maximum PTH(1–34) response (PTH2R (T192V)): 102 ± 2%; % maximum PTH(1–34) response (PTH2R (V241T)): 100 ± 1%; % maximum PTH(1–34) response (PTH2R (M242F)): 98 ± 2%; % maximum PTH(1–34) response (PTH2R (I244L)): 100 ± 3%; % maximum PTH(1–34) response (PTH2R (A293V)): 99 ± 2%; % maximum PTH(1–34) response (PTH2R (A295V)): 99 ± 2%; % maximum PTH(1–34) response (PTH2R (V296S)): 101 ± 2%; % maximum PTH(1–34) response (PTH2R (A297V)): 100 ± 2%; % maximum PTH(1–34) response (PTH2R (Y318I)): 99 ± 1%; % maximum PTH(1–34) response (PTH2R (A320V)): 100 ± 1%; % maximum PTH(1–34) response (PTH2R (G327V)): 100 ± 2%; % maximum PTH(1–34) response (PTH2R (C381A)): 100 ± 2%; % maximum PTH(1–34) response (PTH2R (L382T)): 102 ± 2%; % maximum PTH(1–34) response (PTH2R (C397Y)): 100 ± 2%; % maximum PTH(1–34) response (PTH2R (L399M)): 101 ± 1% |
| 9.55 | 8.02 | 0.22 | 9.66 | 1260 | 5.9 | 479 | 6.32 | 105 | 6.98 | 50.1 | 7.3 | TIP (3–39) (peptide) | – |
| 4.79 | 8.32 | 0.12 | 9.92 | 1480 | 5.83 | 417 | 6.38 | 58.9 | 7.23 | 41.7 | 7.38 | TIP (2–39) (peptide) | – |
| – | – | – | – | – | – | – | – | – | – | – | – | TIP (7–39): TIP39 truncated by the first 6 residues, literature peptide (ref 21) (DAAFRERARLLAALERRHWLNSYMHKLLVLDAP; Tuberoinfundibular peptide of 39 residues; UniProt Q96A98 68-100, looked up, fragment) | efficacy at PTH2 (PTH2): no efficacy |
| 13.2 | 7.88 | 0.29 | 9.54 | 1480 | 5.83 | 603 | 6.22 | 158 | 6.8 | 89.1 | 7.05 | TIP (4–39) (peptide) | – |

Source: publication PMC5303546 (Biochemical Pharmacology, 2017)
